Data on one substance can be found in PMC8865451.

In the assay the target is cs130Fc (human) (UniProt P40189). Nature of the assay: SPR. In general terms: In SPR one partner is held on a chip, and binding of the other changes the refractive index at the surface.

The Kd is the free concentration of one partner at which half of the binding sites on the other are occupied at equilibrium, for simple one-to-one binding. Read a high Kd as lower affinity. In turn, hyper-IL-6 (HIL-6) had a Kd of 0.059 nM.
